Source: the supplement of paper PMC12042874
± gives the uncertainty stated by the source.

Assay: amyloid nucleation score (Sup35N fusion, yeast selection) (log enrichment); library NNK1; higher = more nucleation; inactive = no reads after selection
Procedure, shortened: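 The nucleation score is a DiMSum log enrichment of output over input reads, centred on the mode score of non-aggregating sequences. Sequences under 100 input reads were excluded, and reads came from Illumina sequencing of plasmid inserts. Psi-negative yeast expressing Sup35N fused to peptides of 20 random codons were induced with 100 μM copper sulfate for 24 hours and grown 7 days at 30°C on medium lacking adenine and uracil. Random libraries had three technical output replicates.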

Compared with HNHRRQDGIRNA, HNRMMMRADVTAVDTRYFTS is lower in amyloid nucleation score: 1.12 ± 0.14 for the first, -1.57 ± 1.3 for the second.

HNSNECYYF and HPVIADDLSYAAVIKRYLGV are within error of each other in amyloid nucleation score: -1.06 ± 2.4 for the first, 0.267 ± 0.41 for the second.

Compared with HQIFIWVVGLGTFETPRNHK, HRNRFYVVLYRNLDLWL is lower in amyloid nucleation score: 5.96 ± 0.066 for the first, -0.197 ± 0.23 for the second.

HRRRYAVNFSVEIMIRALG and HRTFA are within error of each other in amyloid nucleation score: -1 ± 1.6 for the first, 0.465 ± 0.35 for the second.

Compared with HRVVSVRRCMKHPLSMERVA, HSEIHVALYCASVML is higher in amyloid nucleation score: 0.447 ± 0.51 for the first, 3.38 ± 0.097 for the second.

HSGFNVAAYFTSMN and HSGSDSAITVVSLGIRE are within error of each other in amyloid nucleation score: 0.467 ± 0.9 for the first, -0.19 ± 0.91 for the second.

Going from HSGTVVYNMEMKKINSCYLL to HSHRYNILQASWKA, the amyloid nucleation score falls from 2.58 ± 0.1 to 0.17 ± 0.38.

HSKRYCGACDLGYLCYRCNI and HSLEDMKHRLGLGGWSSCKV are within error of each other in amyloid nucleation score: -0.333 ± 0.24 for the first, 0.183 ± 0.57 for the second.

HSNIRMCKAECSRGELH and HSQLLGMPFTSSVDS are within error of each other in amyloid nucleation score: 0.812 ± 0.61 for the first, 0.635 ± 0.97 for the second.

Compared with HSVNACLTGRKGAPLRDKPG, HTHESNRPHYYCGADCLPKD is higher in amyloid nucleation score: 0.166 ± 0.78 for the first, 2.71 ± 0.14 for the second.

HTTSICVRELPDQEVWTAVN and HTYSWKISDSSYPTFPELFW are within error of each other in amyloid nucleation score: 0.109 ± 0.54 for the first, 0.121 ± 0.39 for the second.

HVFPHLWKYYCMAVALVFLR and HVFSLKRPDGCRRR are within error of each other in amyloid nucleation score: 1.38 ± 0.61 for the first, 0.711 ± 0.38 for the second.

First: HVHTDSIDRVWRVLFTIKSK
Second: HVLWGIVLVVIFFW
The amyloid nucleation score of the first is higher: 0.776 ± 0.61 for the first, -0.151 ± 0.29 for the second.

HVQEDLNAVGHPLEFEMTVR and HVVFVMDVRYPKIAVVYLLA are within error of each other in amyloid nucleation score: -0.979 ± 1.9 for the first, 1.1 ± 0.66 for the second.

HWSSFPNVLYIM and HWSSSVSVNGVRYTFMSTSR are within error of each other in amyloid nucleation score: -0.106 ± 0.44 for the first, -2.08 ± 2.7 for the second.

Compared with HWTTHESRKMVGQRFQPVGG, HYLVLYVIMYMFVQMSLPC is higher in amyloid nucleation score: 0.078 ± 0.34 for the first, 2.14 ± 0.49 for the second.

First: HYRYFCGLTYVDSAARLQGG
Second: HYSGIVWCSVREL
The amyloid nucleation score of the first is lower: -1.5 ± 1.8 for the first, 1.72 ± 0.52 for the second.

Going from HYVVG to IAREVSSVTVSPQEGTRWWG, the amyloid nucleation score rises from -0.784 ± 0.74 to 0.276 ± 0.3.

ICFRSFRHGNYGLMRG and ICHFVLYVQRPNSGWHYKSL are within error of each other in amyloid nucleation score: 1.35 ± 0.9 for the first, 1.91 ± 0.53 for the second.

Going from ICIASFCKKNVTCGLIWLIV to ICISSPVMMKAIPLPFEFSR, the amyloid nucleation score falls from 1.51 ± 0.7 to -0.167 ± 0.43.

First: ICLIAWGQ
Second: ICLLLCLVWDGCIATISNGL
The amyloid nucleation score of the first is higher: 1.66 ± 0.41 for the first, -1.39 ± 2.1 for the second.

First: ICQRSRAGSGSEVLT
Second: ICSNVLFVLILEKEASFGCY
The amyloid nucleation score of the first is lower: -0.205 ± 0.49 for the first, 4.21 ± 0.051 for the second.

ICSWPNRRVAVPH and ICTFVMKLTAFVIIVLVFFH are within error of each other in amyloid nucleation score: -0.482 ± 1.2 for the first, -0.125 ± 0.26 for the second.

Going from IDKNVIIIKVLCMLIVFPTG to IDTNCRNCGYREFASKCELR, the amyloid nucleation score rises from -0.771 ± 0.82 to 0.456 ± 0.26.

IDVRI and IEAYVINGKLDWALWFRGDE are within error of each other in amyloid nucleation score: -0.152 ± 0.43 for the first, -0.407 ± 0.85 for the second.

IEDTGIYRSVTFTVAMTYTV and IEESSWLLDFRSGSALSEVS are within error of each other in amyloid nucleation score: -0.373 ± 0.38 for the first, -0.542 ± 0.86 for the second.

IEFLAILLVAAMVQ and IELVNYFHYFRWVGLLDRRC are within error of each other in amyloid nucleation score: -0.345 ± 1.2 for the first, -0.077 ± 0.38 for the second.

IESWCLMSVNSDGARWSSRF and IFEIAESDLVYDHFSHYFKR are within error of each other in amyloid nucleation score: -0.872 ± 0.83 for the first, -0.033 ± 0.67 for the second.

IFFKLVLVWTFLLTYQAYWV and IFGGLH are within error of each other in amyloid nucleation score: 0.174 ± 0.85 for the first, 0.631 ± 0.5 for the second.

Compared with IFGITNSMLVFMGYCLIHCL, IFITCIARTLYHAGNLQRNL is higher in amyloid nucleation score: -0.895 ± 1 for the first, 2 ± 0.11 for the second.

IFRSFLDG and IFSGWCVRVFCSFLKHNCLN are within error of each other in amyloid nucleation score: -0.437 ± 0.3 for the first, -0.408 ± 0.47 for the second.

First: IFSHIPCLITFSNDQ
Second: IFVSHYNVR
The amyloid nucleation score of the first is higher: 2.13 ± 0.43 for the first, 0.734 ± 0.25 for the second.

IFVSSVRGAPYIYKCTKSRM and IGAGPRL are within error of each other in amyloid nucleation score: -0.504 ± 0.52 for the first, -0.623 ± 0.27 for the second.

IGCLKFSFFHNLGFGSIDYR and IGPGTWGLSLYRDRILITTM are within error of each other in amyloid nucleation score: -0.742 ± 0.53 for the first, -0.037 ± 0.89 for the second.

IGSMRMVSGLRFMRFVDHFS and IGVRRFFLWS are within error of each other in amyloid nucleation score: -0.316 ± 0.42 for the first, -0.753 ± 0.48 for the second.

IHLCYRDYRMHVARLSAETG and IHMLIVLSF are within error of each other in amyloid nucleation score: 0.02 ± 0.53 for the first, -0.103 ± 1.4 for the second.

Compared with IHRFKFGG, IHVPNYVDRELELRASNSSR is lower in amyloid nucleation score: 1.98 ± 0.2 for the first, -0.298 ± 0.32 for the second.

IHWANPLTVSAFKVWVEDMV and IIFHICRTGEDLTKSGCLSW are within error of each other in amyloid nucleation score: 0.256 ± 0.29 for the first, -0.494 ± 1.1 for the second.

Compared with IIFNYPNPIYLNAKEVMLYI, IIGRLNLKMISGLI is lower in amyloid nucleation score: 6.52 ± 0.067 for the first, 2.15 ± 0.58 for the second.

First: IIHFKSGIWNATDGCLIMCV
Second: IILFSSVGCSMCMTSGLEGF
The amyloid nucleation score of the first is lower: 0.793 ± 0.65 for the first, 6.964 ± 0.066 for the second.

IILLNNYTDMHIPEGIGVTM and IIMRTMHHAKRLSGLKP are within error of each other in amyloid nucleation score: 0.466 ± 1.4 for the first, 0.996 ± 0.44 for the second.

First: IIQCNVTYAS
Second: IIRGRNVNSVRSNYYMGRFY
The amyloid nucleation score of the first is higher: 3.63 ± 0.12 for the first, 2.72 ± 0.095 for the second.

First: IISVTVFFKCARLEILNR
Second: IKGPLLFIFSESVLAFDETS
The amyloid nucleation score of the first is lower: -0.64 ± 0.57 for the first, 3.6 ± 0.073 for the second.

Going from IKGQGVKVSVVLTAGTCRLW to IKIIAFFWLCSYHGWISWKS, the amyloid nucleation score falls from 1.17 ± 0.19 to -1.5 ± 1.1.

First: IKIRAFDTSSCSQFRVRPRV
Second: IKLGVFRIKSSFN
The amyloid nucleation score of the first is higher: 4.63 ± 0.095 for the first, 0.708 ± 0.34 for the second.

First: IKLHSEGRIYHINFACRSVC
Second: IKLTPLMLRTTELV
The amyloid nucleation score of the first is higher: 0.199 ± 0.24 for the first, -1.32 ± 0.5 for the second.

IKNKGRYVFETPGL and IKPANYA are within error of each other in amyloid nucleation score: 0.13 ± 0.87 for the first, -0.679 ± 0.53 for the second.

Compared with IKSGPPGRRQLFN, ILFFRRCISVGLL is higher in amyloid nucleation score: -0.741 ± 0.81 for the first, 3.33 ± 0.12 for the second.

ILGFSRWNLNCISSRGRKIR and ILGLSRGQ are within error of each other in amyloid nucleation score: -0.297 ± 0.39 for the first, 0.015 ± 0.37 for the second.

Going from ILGMFSTICDGWADVMH to ILGWHGIRFVFRTALFRR, the amyloid nucleation score falls from 0.525 ± 0.36 to -0.286 ± 0.41.

Going from ILHQAILRCVSRYGLS to ILIFVNSVYRNVSSR, the amyloid nucleation score rises from -0.012 ± 0.76 to 5.27 ± 0.056.

ILILNGLGGHVFARWYVACT and ILILRGNCR are within error of each other in amyloid nucleation score: 0.002 ± 0.75 for the first, -0.165 ± 0.73 for the second.

First: ILISVSLNMWY
Second: ILITSLWFSGVADVMANRVW
The amyloid nucleation score of the first is higher: 2.43 ± 0.13 for the first, 0.314 ± 0.34 for the second.

ILMMPLIESCMEVLGHPS and ILMYMWDKLNLYNIWFLRQV are within error of each other in amyloid nucleation score: 0.873 ± 0.51 for the first, 0.263 ± 0.5 for the second.

ILPKWAK and ILPRNFVSTNVANRFIEGSS are within error of each other in amyloid nucleation score: 0.7 ± 0.97 for the first, 0.932 ± 0.66 for the second.

ILQSFSTVEHFEDLL and ILRNGRTYGAEVLQQLWNVL are within error of each other in amyloid nucleation score: 0.58 ± 1.2 for the first, -0.418 ± 0.73 for the second.

ILSAMVRE and ILSICLSLVFRPSVMIEYLR are within error of each other in amyloid nucleation score: -0.081 ± 0.23 for the first, 0.191 ± 0.26 for the second.

First: ILSIFLYWAILLRSCQYLYW
Second: ILSKVCGFSVARIWCSCISI
The amyloid nucleation score of the first is lower: -0.949 ± 0.4 for the first, 6.65 ± 0.088 for the second.

ILTMVEILKTIRGSA and ILVPYLIAFFMEYRSRLCRF are within error of each other in amyloid nucleation score: -0.316 ± 0.47 for the first, 0.254 ± 0.27 for the second.

With HTQDYEEFIFCLM the amyloid nucleation score was “inactive”.
For HVSVRSLRAVGVLRRRCGNG, the amyloid nucleation score was “inactive”.
For HVTVNGWGAVSFLKNAKVVR, the amyloid nucleation score was “inactive”.
In the case of HWWYFCINP, the amyloid nucleation score is reported as “inactive”.
In the case of IFLGIFSGILYRLSHRLCS, the amyloid nucleation score is reported as “inactive”.
With IGSVCLQ the amyloid nucleation score was “inactive”.
For IICSSM, the amyloid nucleation score was “inactive”.
With IIPPV the amyloid nucleation score was “inactive”.
For IKALMIC, the amyloid nucleation score was “inactive”.
In the case of IKISYEIQAMAVLGM, the amyloid nucleation score is reported as “inactive”.
